Changes are numbered by the printed parent chain. In names and notes the source's numbering stands.
B1: GST-OPTN UBAN (aa 420-509) S473E (domain or fragment, human, UniProt Q96CV9 420-509, looked up)
chain: RAVLKELSEKLELAEKALASKQLQMDEMKQTIAKQEEDLETMTILRAQMEVYCEDFHAERAAREKIHEEKEQLALQLAVLLKENDAFEDG
B2: GST-OPTN UBAN (aa 420-509), wild type (domain or fragment, human, UniProt Q96CV9 420-509, looked up)
chain: B1 chain with E54S
B3: GST-ABIN-1 UBAN (aa 463-532), wild type (domain or fragment, mouse, UniProt Q9WUU8 463-532, looked up)
chain: LRKQELVTQNELLKQQVKIFEEDFQRERSDRERMNEEKEELKKQVEKLQAQVTLTNAQLKTLKEEEKAKE
B4: GST-NEMO UBAN (aa 250-339), wild type (domain or fragment, mouse, UniProt O88522 250-339, looked up)
chain: GMQLEDLRQQLQQAEEALVAKQELIDKLKEEAEQHKIVMETVPVLKAQADIYKADFQAERHAREKLVEKKEYLQEQLEQLQREFNKLKVG
B5: GST-NEMO UBAN (aa 250-339) A303E (domain or fragment, mouse, UniProt O88522 250-339, looked up)
chain: B4 chain with A54E
B6: ABIN-1 UBAN (mouse, aa 463-532), GST tag cleaved (domain or fragment, UniProt Q9WUU8 463-532, looked up)
chain: B3 chain

Biological target: M1-linked tetra-ubiquitin (UniProt P0CG48 1-76; P0CG48 1-76; P0CG48 1-76; P0CG48 1-76)
Sequence (P0CG48 1-304, one chain of several): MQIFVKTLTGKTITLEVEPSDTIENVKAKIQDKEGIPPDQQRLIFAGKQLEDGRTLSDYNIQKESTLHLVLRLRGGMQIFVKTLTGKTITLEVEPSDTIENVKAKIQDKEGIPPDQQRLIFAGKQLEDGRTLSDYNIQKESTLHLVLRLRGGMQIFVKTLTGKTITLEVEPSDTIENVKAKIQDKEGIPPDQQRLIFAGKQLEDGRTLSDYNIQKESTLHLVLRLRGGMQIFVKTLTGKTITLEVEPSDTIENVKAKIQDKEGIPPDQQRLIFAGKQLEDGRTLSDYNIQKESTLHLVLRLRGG
Test: SPR

| Kd | Binder |
| --- | --- |
| 508 nM | B1 |
| 916 nM | B2 |
| 972 nM | B3 |
| 562 nM | B4 |
| 362 nM | B5 |

Biological target: the molecule itself
Test: crystal structure

| Binder | stoichiometry N |
| --- | --- |
| B6 | 2 chains in the oligomer |

From article doi:10.1101/521815 (bioRxiv, 2019)
